In FireProtDB (doi:10.1002/pro.164):

B1: T44A, Q6T418 (parent)
chain: MERKTFSFLFLLLLVLASDVAVERGEARTCMIKKEGWGKCLIDTTCAHSCKNRGYIGGNCKGMTRTCYCLVNC

Variants of: B1
Conditions: Vigna radiata; pH 7; 37 °C; GdnHCl; Fluorescence; Tris-HCl 10 mM; NaCl 100 mM; structure 1TI5; whole UniProt chain shown

Row | Variant | denaturant midpoint (higher = more stable)
1 | T44A | 3.32 M
2 | S49A | 2.84 M
3 | H48A | 4.33 M
4 | T66A | 3.32 M
5 | K34A | 2.53 M
6 | M31A | 3.66 M
7 | K33A | 2.57 M
8 | I42A | 3.87 M
9 | N59A | 2.64 M
10 | K39A | 2.48 M
11 | G38A | 4.66 M
12 | R28A | 3.29 M
13 | N52A | 3.49 M
14 | I56A | 3.32 M
15 | G62A | 3.44 M
16 | M63A | 3.88 M

Row | Variant | denaturant midpoint (higher = more stable)
17 | C30A C73A | 2.69 M
18 | V71A | 3.14 M
19 | L70A | 4.69 M
20 | G57A | 3.26 M
21 | G36A | 3.27 M
22 | K61A | 3.31 M
23 | K51A | 2.81 M
24 | R65A | 2.97 M
25 | I32A | 2.93 M
26 | Y68A | 3.73 M
27 | T64A | 2.98 M
28 | R53A | 2.76 M
29 | Y55A | 3.1 M
30 | D43A | 2.96 M
31 | T45A | 4.5 M
